Source: publication PMC9352680, “A comprehensive thermodynamic model for RNA binding by the Saccharomyces cerevisiae Pumilio protein PUF4”

biological target: T1, PUF4 RNA-binding domain (Saccharomyces cerevisiae, UniProt P25339 537-888); assay: Mg; RNA-MaP; 20 mM Na-HEPES pH 7.4, 30 mM KOAc, 0.75 mM MgCl2, 0.1% Tween-20, 5% glycerol, 0.1 mg/mL BSA, 2 mM DTT; 25 C; 0.0125-409.6 nM protein; conditions: tags: N-His6-TEV cleaved; C-SNAP kept, Cy3B-labelled; label: tethered on chip by stalled RNA polymerase
T1 sequence: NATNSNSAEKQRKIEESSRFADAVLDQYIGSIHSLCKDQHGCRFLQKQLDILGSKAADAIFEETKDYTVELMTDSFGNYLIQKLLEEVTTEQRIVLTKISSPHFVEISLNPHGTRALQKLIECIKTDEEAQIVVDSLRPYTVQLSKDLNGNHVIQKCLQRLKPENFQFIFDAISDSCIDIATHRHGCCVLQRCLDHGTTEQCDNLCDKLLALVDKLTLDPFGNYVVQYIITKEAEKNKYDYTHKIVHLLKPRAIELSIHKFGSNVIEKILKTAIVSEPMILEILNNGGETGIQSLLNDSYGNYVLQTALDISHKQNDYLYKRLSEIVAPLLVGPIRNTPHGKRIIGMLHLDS

Binder | Kd
UCUCUUUGACACUUAUUAUCUCUCUU (ssRNA) [Id_ii_S1_P5E.4_K5.3_C5.2_[C-2T]_[T-1G]_H5.3_A5.1_F5.1_T5.2_[A12C]] | > 2300 nM
UCUCUUACACACUUAUUAUUUCUCUU (ssRNA) [Id_ii_S1_P5E.4_K5.3_C5.2_[C-2A]_[T-1C]_H5.3_A5.1_F5.1_T5.2_[A12T]] | > 2300 nM
UCUCUUUCACACUUAUUACCUCUCUU (ssRNA) [Id_ii_S1_P5E.4_K5.3_C5.2_[C-2T]_[T-1C]_H5.3_A5.1_F5.1_T5.2_[T11C]_[A12C]] | > 2300 nM
UCUCUUUGUAUUAUGUUCUCUU (ssRNA) [Ib_S1_P5E.1_K5.1_C5.1_H5.1_A5.1_F5.1_[T9G]_[A10T]_T5.1] | 10.8 nM
UCUCUUAGACACUUAUUAAAUCUCUU (ssRNA) [Id_ii_S1_P5E.4_K5.3_C5.2_[C-2A]_[T-1G]_H5.3_A5.1_F5.1_T5.2_[T11A]] | > 2300 nM
UCUCUUUCACACUUAUUACAUCUCUU (ssRNA) [Id_ii_S1_P5E.4_K5.3_C5.2_[C-2T]_[T-1C]_H5.3_A5.1_F5.1_T5.2_[T11C]] | > 2300 nM
UCUCUUUCACACUUAUUACUUCUCUU (ssRNA) [Id_ii_S1_P5E.4_K5.3_C5.2_[C-2T]_[T-1C]_H5.3_A5.1_F5.1_T5.2_[T11C]_[A12T]] | > 2300 nM
UCUCUUAAACACUUAUUACAUCUCUU (ssRNA) [Id_ii_S1_P5E.4_K5.3_C5.2_[C-2A]_[T-1A]_H5.3_A5.1_F5.1_T5.2_[T11C]] | > 2300 nM
UCUCUUUUACACUUAUUAUGUCUCUU (ssRNA) [Id_ii_S1_P5E.4_K5.3_C5.2_[C-2T]_H5.3_A5.1_F5.1_T5.2_[A12G]] | > 2300 nM
UCUCUUUCACACUUAUUAUGUCUCUU (ssRNA) [Id_ii_S1_P5E.4_K5.3_C5.2_[C-2T]_[T-1C]_H5.3_A5.1_F5.1_T5.2_[A12G]] | > 2300 nM
UCUCUUUGUAUUACUUUCUCUU (ssRNA) [Ib_S1_P5E.1_K5.1_C5.1_H5.1_A5.1_F5.1_[T8C]_[A10T]_T5.1] | 44.6 nM
UCUCUUUUACACUUAUUAUAUCUCUU (ssRNA) [Id_ii_S1_P5E.4_K5.3_C5.2_[C-2T]_H5.3_A5.1_F5.1_T5.2] | > 2300 nM
UCUCUUAGACACUUAUUAAUUCUCUU (ssRNA) [Id_ii_S1_P5E.4_K5.3_C5.2_[C-2A]_[T-1G]_H5.3_A5.1_F5.1_T5.2_[T11A]_[A12T]] | > 2300 nM
UCUCUUAAACACUUAUUACGUCUCUU (ssRNA) [Id_ii_S1_P5E.4_K5.3_C5.2_[C-2A]_[T-1A]_H5.3_A5.1_F5.1_T5.2_[T11C]_[A12G]] | > 2300 nM
UCUCUUUCACACUUAUUACGUCUCUU (ssRNA) [Id_ii_S1_P5E.4_K5.3_C5.2_[C-2T]_[T-1C]_H5.3_A5.1_F5.1_T5.2_[T11C]_[A12G]] | > 2300 nM
UCUCUUUAACACUUAUUAAAUCUCUU (ssRNA) [Id_ii_S1_P5E.4_K5.3_C5.2_[C-2T]_[T-1A]_H5.3_A5.1_F5.1_T5.2_[T11A]] | > 2300 nM
UCUCUUUCACACUUAUUAAAUCUCUU (ssRNA) [Id_ii_S1_P5E.4_K5.3_C5.2_[C-2T]_[T-1C]_H5.3_A5.1_F5.1_T5.2_[T11A]] | > 2300 nM
UCUCUUGUACACUUAUUAUAUCUCUU (ssRNA) [Id_ii_S1_P5E.4_K5.3_C5.2_[C-2G]_H5.3_A5.1_F5.1_T5.2] | 3.91 nM
UCUCUUACACACUUAUUAAUUCUCUU (ssRNA) [Id_ii_S1_P5E.4_K5.3_C5.2_[C-2A]_[T-1C]_H5.3_A5.1_F5.1_T5.2_[T11A]_[A12T]] | > 2300 nM

Binder | Kd
UCUCUUGUACACUUAUUAAAUCUCUU (ssRNA) [Id_ii_S1_P5E.4_K5.3_C5.2_[C-2G]_H5.3_A5.1_F5.1_T5.2_[T11A]] | 3.63 nM
UCUCUUACACACUUAUUAAAUCUCUU (ssRNA) [Id_ii_S1_P5E.4_K5.3_C5.2_[C-2A]_[T-1C]_H5.3_A5.1_F5.1_T5.2_[T11A]] | > 2300 nM
UCUCUUUCACACUUAUUAUAUCUCUU (ssRNA) [Id_ii_S1_P5E.4_K5.3_C5.2_[C-2T]_[T-1C]_H5.3_A5.1_F5.1_T5.2] | > 2300 nM
UCUCUUAAACACUUAUUACCUCUCUU (ssRNA) [Id_ii_S1_P5E.4_K5.3_C5.2_[C-2A]_[T-1A]_H5.3_A5.1_F5.1_T5.2_[T11C]_[A12C]] | > 2300 nM
UCUCUUUCACACUUAUUAGCUCUCUU (ssRNA) [Id_ii_S1_P5E.4_K5.3_C5.2_[C-2T]_[T-1C]_H5.3_A5.1_F5.1_T5.2_[T11G]_[A12C]] | > 2300 nM
UCUCUUAGACACUUAUUAUUUCUCUU (ssRNA) [Id_ii_S1_P5E.4_K5.3_C5.2_[C-2A]_[T-1G]_H5.3_A5.1_F5.1_T5.2_[A12T]] | > 2300 nM
UCUCUUUUACACUUAUUAUUUCUCUU (ssRNA) [Id_ii_S1_P5E.4_K5.3_C5.2_[C-2T]_H5.3_A5.1_F5.1_T5.2_[A12T]] | > 2300 nM
UCUCUUGUACACUUAUUAUUUCUCUU (ssRNA) [Id_ii_S1_P5E.4_K5.3_C5.2_[C-2G]_H5.3_A5.1_F5.1_T5.2_[A12T]] | 3.73 nM
UCUCUUAAACACUUAUUAACUCUCUU (ssRNA) [Id_ii_S1_P5E.4_K5.3_C5.2_[C-2A]_[T-1A]_H5.3_A5.1_F5.1_T5.2_[T11A]_[A12C]] | > 2300 nM
UCUCUUUAACACUUAUUAUUUCUCUU (ssRNA) [Id_ii_S1_P5E.4_K5.3_C5.2_[C-2T]_[T-1A]_H5.3_A5.1_F5.1_T5.2_[A12T]] | > 2300 nM
UCUCUUUGUAUUAUGGUCUCUU (ssRNA) [Ib_S1_P5E.1_K5.1_C5.1_H5.1_A5.1_F5.1_[T9G]_[A10G]_T5.1] | 7.8 nM
UCUCUUUAACACUUAUUAUAUCUCUU (ssRNA) [Id_ii_S1_P5E.4_K5.3_C5.2_[C-2T]_[T-1A]_H5.3_A5.1_F5.1_T5.2] | > 2300 nM
UCUCUUUAACACUUAUUACGUCUCUU (ssRNA) [Id_ii_S1_P5E.4_K5.3_C5.2_[C-2T]_[T-1A]_H5.3_A5.1_F5.1_T5.2_[T11C]_[A12G]] | > 2300 nM
UCUCUUUAACACUUAUUACCUCUCUU (ssRNA) [Id_ii_S1_P5E.4_K5.3_C5.2_[C-2T]_[T-1A]_H5.3_A5.1_F5.1_T5.2_[T11C]_[A12C]] | > 2300 nM
UCUCUUUUACACUUAUUAUCUCUCUU (ssRNA) [Id_ii_S1_P5E.4_K5.3_C5.2_[C-2T]_H5.3_A5.1_F5.1_T5.2_[A12C]] | > 2300 nM
UCUCUUUUACACUUAUUAACUCUCUU (ssRNA) [Id_ii_S1_P5E.4_K5.3_C5.2_[C-2T]_H5.3_A5.1_F5.1_T5.2_[T11A]_[A12C]] | > 2300 nM
UCUCUUAGACACUUAUUACCUCUCUU (ssRNA) [Id_ii_S1_P5E.4_K5.3_C5.2_[C-2A]_[T-1G]_H5.3_A5.1_F5.1_T5.2_[T11C]_[A12C]] | > 2300 nM
UCUCUUUCACACUUAUUAUUUCUCUU (ssRNA) [Id_ii_S1_P5E.4_K5.3_C5.2_[C-2T]_[T-1C]_H5.3_A5.1_F5.1_T5.2_[A12T]] | > 2300 nM
UCUCUUUGUAUUAUGCUCUCUU (ssRNA) [Ib_S1_P5E.1_K5.1_C5.1_H5.1_A5.1_F5.1_[T9G]_[A10C]_T5.1] | 15.2 nM

Binder | Kd
UCUCUUUCACACUUAUUAUCUCUCUU (ssRNA) [Id_ii_S1_P5E.4_K5.3_C5.2_[C-2T]_[T-1C]_H5.3_A5.1_F5.1_T5.2_[A12C]] | > 2300 nM
UCUCUUAAACACUUAUUACUUCUCUU (ssRNA) [Id_ii_S1_P5E.4_K5.3_C5.2_[C-2A]_[T-1A]_H5.3_A5.1_F5.1_T5.2_[T11C]_[A12T]] | > 2300 nM
UCUCUUUGUAUUAUCAUCUCUU (ssRNA) [Ia_S1_P5E.1_K5.1_C5.1_H5.1_A5.1_F5.1_[T9C]_T5.1] | 21.9 nM
UCUCUUAGACACUUAUUACAUCUCUU (ssRNA) [Id_ii_S1_P5E.4_K5.3_C5.2_[C-2A]_[T-1G]_H5.3_A5.1_F5.1_T5.2_[T11C]] | > 2300 nM
UCUCUUUAACACUUAUUACUUCUCUU (ssRNA) [Id_ii_S1_P5E.4_K5.3_C5.2_[C-2T]_[T-1A]_H5.3_A5.1_F5.1_T5.2_[T11C]_[A12T]] | > 2300 nM
UCUCUUACACACUUAUUACCUCUCUU (ssRNA) [Id_ii_S1_P5E.4_K5.3_C5.2_[C-2A]_[T-1C]_H5.3_A5.1_F5.1_T5.2_[T11C]_[A12C]] | > 2300 nM
UCUCUUGUACACUUAUUAUCUCUCUU (ssRNA) [Id_ii_S1_P5E.4_K5.3_C5.2_[C-2G]_H5.3_A5.1_F5.1_T5.2_[A12C]] | 2.94 nM
UCUCUUUUACACUUAUUAAAUCUCUU (ssRNA) [Id_ii_S1_P5E.4_K5.3_C5.2_[C-2T]_H5.3_A5.1_F5.1_T5.2_[T11A]] | > 2300 nM
UCUCUUUGUAUUAUCGUCUCUU (ssRNA) [Ib_S1_P5E.1_K5.1_C5.1_H5.1_A5.1_F5.1_[T9C]_[A10G]_T5.1] | 30.6 nM
UCUCUUAGACACUUAUUACUUCUCUU (ssRNA) [Id_ii_S1_P5E.4_K5.3_C5.2_[C-2A]_[T-1G]_H5.3_A5.1_F5.1_T5.2_[T11C]_[A12T]] | > 2300 nM
UCUCUUACACACUUAUUAGCUCUCUU (ssRNA) [Id_ii_S1_P5E.4_K5.3_C5.2_[C-2A]_[T-1C]_H5.3_A5.1_F5.1_T5.2_[T11G]_[A12C]] | > 2300 nM
UCUCUUUCACACUUAUUAACUCUCUU (ssRNA) [Id_ii_S1_P5E.4_K5.3_C5.2_[C-2T]_[T-1C]_H5.3_A5.1_F5.1_T5.2_[T11A]_[A12C]] | > 2300 nM
UCUCUUUAACACUUAUUAAUUCUCUU (ssRNA) [Id_ii_S1_P5E.4_K5.3_C5.2_[C-2T]_[T-1A]_H5.3_A5.1_F5.1_T5.2_[T11A]_[A12T]] | > 2300 nM
UCUCUUAGACACUUAUUAACUCUCUU (ssRNA) [Id_ii_S1_P5E.4_K5.3_C5.2_[C-2A]_[T-1G]_H5.3_A5.1_F5.1_T5.2_[T11A]_[A12C]] | > 2300 nM
UCUCUUUUACACUUAUUACCUCUCUU (ssRNA) [Id_ii_S1_P5E.4_K5.3_C5.2_[C-2T]_H5.3_A5.1_F5.1_T5.2_[T11C]_[A12C]] | > 2300 nM
UCUCUUUAACACUUAUUACAUCUCUU (ssRNA) [Id_ii_S1_P5E.4_K5.3_C5.2_[C-2T]_[T-1A]_H5.3_A5.1_F5.1_T5.2_[T11C]] | > 2300 nM
UCUCUUACACACUUAUUAUAUCUCUU (ssRNA) [Id_ii_S1_P5E.4_K5.3_C5.2_[C-2A]_[T-1C]_H5.3_A5.1_F5.1_T5.2] | > 2300 nM
UCUCUUUAACACUUAUUAUCUCUCUU (ssRNA) [Id_ii_S1_P5E.4_K5.3_C5.2_[C-2T]_[T-1A]_H5.3_A5.1_F5.1_T5.2_[A12C]] | > 2300 nM
UCUCUUUCACACUUAUUAAUUCUCUU (ssRNA) [Id_ii_S1_P5E.4_K5.3_C5.2_[C-2T]_[T-1C]_H5.3_A5.1_F5.1_T5.2_[T11A]_[A12T]] | > 2300 nM
